± gives the standard deviation of the averaged measurements.
How the values were obtained:
Saccharomyces cerevisiae [1] = test: protein stability index of tFT-peptide fusion (C-terminal peptide) (PSI (0-1 scale)); higher = more stable (slower turnover)
Method: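 MPS profiling in S. cerevisiae of the tFT-X12 degron library: putative degron peptides plus stable controls, 12 aa, fused to the C-terminus of a sfGFP-mCherry timer. Cells are FACS-sorted into 8 mCherry/sfGFP bins and deep-sequenced. PSI runs from 0 (unstable) to 1 (stable). Backgrounds are wild type, das1Δ and doa10Δ at 30 °C, and wild type, das1Δ, cdc34-1 and cdc53-1 at 37 °C; 2-3 technical replicates each.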

Saccharomyces cerevisiae [2] = test: as above; conditions: genetic background: wild type; temperature: 30 C
[3] = genetic background: cdc34-1, temperature: 37 C
[4] = genetic background: cdc53-1, temperature: 37 C
[5] = genetic background: das1 deletion, temperature: 30 C
[6] = genetic background: das1 deletion, temperature: 37 C
[7] = genetic background: doa10 deletion, temperature: 30 C
[8] = genetic background: wild type, temperature: 30 C
[9] = genetic background: wild type, temperature: 37 C
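Note: PSI is a weighted mean of sequencing reads over stability bins, variants kept only with over 10 reads, mCherry proximal and sfGFP distal, peptide attached via GGGS linker.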

Row | Sequence | protein stability index (Saccharomyces cerevisiae [1]; [3]) | protein stability index (Saccharomyces cerevisiae [1]; [4]) | protein stability index (Saccharomyces cerevisiae [1]; [5]) | protein stability index (Saccharomyces cerevisiae [1]; [6]) | protein stability index (Saccharomyces cerevisiae [1]; [7]) | protein stability index (Saccharomyces cerevisiae [1]; [8]) | protein stability index (Saccharomyces cerevisiae [1]; [9]) | protein stability index (Saccharomyces cerevisiae [2])
1 | LGNVTDVMHRLS | 0.645 ± 0.038 | 0.739 ± 0.0094 | 0.6481 ± 0.0036 | 0.734 ± 0.023 | 0.328 ± 0.0097 | 0.379 ± 0.012 | 0.617 ± 0.012 | 0.48 ± 0.0083
2 | VCTFLLVSFFLS | 0.223 ± 0.0027 | 0.315 ± 0.064 | 0.237 ± 0.028 | 0.423 ± 0.012 | 0.186 ± 0.019 | 0.185 ± 0.017 | 0.33 ± 0.0099 | 0.326 ± 0.017
3 | VPVWHTVKLYCF | 0.342 ± 0.0081 | 0.439 ± 0.0077 | 0.345 ± 0.038 | 0.4934 ± 0.0021 | 0.073 ± 0.00079 | 0.088 ± 0.017 | 0.0851 ± 0.018 | 0.159 ± 0.061
4 | PLFLRPLSVPVL | 0.421 ± 0.0067 | 0.441 ± 0.01 | 0.333 ± 0.03 | 0.457 ± 0.0058 | 0.305 ± 0.0096 | 0.328 ± 0.024 | 0.4324 ± 0.0022 | 0.425 ± 0.0092
5 | ISVSFSVIFFLL | 0.266 ± 0.0073 | 0.398 ± 0.019 | 0.372 ± 0.019 | 0.4778 ± 0.0024 | 0.0751 ± 0.0046 | 0.0951 ± 0.01 | 0.137 ± 0.002 | 0.154 ± 0.044
6 | WFVCSGVYGSVM | 0.676 ± 0.0086 | 0.749 ± 0.02 | 0.682 ± 0.094 | 0.758 ± 0.035 | 0.6528 ± 0.0019 | 0.638 ± 0.026 | 0.721 ± 0.0092 | 0.692 ± 0.013
7 | DFVYFPPIPVSS | 0.303 ± 0.0088 | 0.352 ± 0.039 | 0.253 ± 0.051 | 0.462 ± 0.011 | 0.218 ± 0.0036 | 0.266 ± 0.032 | 0.409 ± 0.006 | 0.337 ± 0.018
8 | KLRELQVRQQLS | 0.648 ± 0.1 | 0.677 ± 0.015 | 0.635 ± 0.03 | 0.7272 ± 0.0049 | 0.189 ± 0.021 | 0.199 ± 0.025 | 0.413 ± 0.017 | 0.382 ± 0.02
9 | TFRPWPLHILAL | 0.195 ± 0.0033 | 0.219 ± 0.029 | 0.216 ± 0.038 | 0.325 ± 0.0089 | 0.15 ± 0.0036 | 0.166 ± 0.026 | 0.201 ± 0.019 | 0.257 ± 0.029
10 | RLLCLARMRGLH | 0.6854 ± 0.0031 | 0.714 ± 0.02 | 0.631 ± 0.068 | 0.728 ± 0.037 | 0.341 ± 0.036 | 0.337 ± 0.022 | 0.579 ± 0.024 | 0.396 ± 0.2
11 | FFFFLVPVHCVI | 0.261 ± 0.029 | 0.371 ± 0.028 | 0.261 ± 0.035 | 0.452 ± 0.021 | 0.239 ± 0.023 | 0.249 ± 0.024 | 0.406 ± 0.018 | 0.358 ± 0.02
12 | RPIFAYRPLRFL | 0.656 ± 0.047 | 0.757 ± 0.001 | 0.654 ± 0.014 | 0.763 ± 0.023 | 0.212 ± 0.0076 | 0.231 ± 0.04 | 0.503 ± 0.015 | 0.342 ± 0.053
13 | LSFFDYVLLQIA | 0.556 ± 0.03 | 0.58 ± 0.029 | 0.462 ± 0.032 | 0.635 ± 0.0073 | 0.166 ± 0.013 | 0.199 ± 0.028 | 0.317 ± 0.027 | 0.285 ± 0.01
14 | RGGVCFVVWCGG | 0.46 ± 0.03 | 0.503 ± 0.095 | 0.435 ± 0.0077 | 0.475 ± 0.029 | 0.4305 ± 0.00076 | 0.432 ± 0.0053 | 0.441 ± 0.0061 | 0.429
15 | FRRSFPFPLFLR | 0.105 ± 0.014 | 0.0555 ± 0.0048 | 0.196 ± 0.031 | 0.238 ± 0.03 | 0.696 ± 0.04 | 0.197 ± 0.045 | 0.219 ± 0.0033 | 0.232 ± 0.12
16 | PSTLVITVVITK | 0.247 ± 0.019 | 0.29 ± 0.0099 | 0.279 ± 0.029 | 0.4255 ± 0.0021 | 0.23 ± 0.023 | 0.243 ± 0.03 | 0.389 ± 0.02 | 0.37 ± 0.038
17 | LAPSRNRSVWLV | 0.591 ± 0.015 | 0.7308 ± 0.002 | 0.649 ± 0.016 | 0.74 ± 0.0098 | 0.104 ± 0.012 | 0.119 ± 0.018 | 0.199 ± 0.0086 | 0.247 ± 0.036
18 | LQSVAFERGGPD | 0.687 ± 0.017 | 0.736 ± 0.0092 | 0.649 ± 0.0084 | 0.729 ± 0.015 | 0.647 ± 0.026 | 0.661 ± 0.0084 | 0.7194 ± 0.0071 | 0.727 ± 0.018
19 | FFCSLIISRFLL | 0.542 ± 0.035 | 0.608 ± 0.014 | 0.511 ± 0.018 | 0.62 ± 0.02 | 0.139 ± 0.012 | 0.168 ± 0.033 | 0.299 ± 0.0054 | 0.214 ± 0.04
20 | SVFCSLFLFLFY | 0.477 ± 0.025 | 0.5013 ± 0.0034 | 0.4 ± 0.032 | 0.5568 ± 0.0013 | 0.414 ± 0.026 | 0.388 ± 0.01 | 0.517 ± 0.026 | 0.422 ± 0.037
21 | NFVVYHVAIRVP | 0.073 ± 0.0071 | 0.134 ± 0.0046 | 0.17 ± 0.017 | 0.2466 ± 0.0024 | 0.139 ± 0.0025 | 0.155 ± 0.019 | 0.198 ± 0.02 | 0.243 ± 0.037
22 | LLVVFSCFTFMF | 0.259 ± 0.0096 | 0.399 ± 0.042 | 0.277 ± 0.032 | 0.476 ± 0.0058 | 0.254 ± 0.027 | 0.279 ± 0.028 | 0.449 ± 0.022 | 0.38 ± 0.037
23 | HSPRVLLPLYFR | 0.199 ± 0.064 | 0.133 ± 0.013 | 0.301 ± 0.035 | 0.365 ± 0.033 | 0.672 ± 0.02 | 0.278 ± 0.037 | 0.328 ± 0.021 | 0.378 ± 0.086
24 | RVVILFVFLVYV | 0.269 ± 0.013 | 0.342 ± 0.0015 | 0.258 ± 0.037 | 0.376 ± 0.0065 | 0.2526 ± 0.0011 | 0.25 ± 0.018 | 0.365 ± 0.014 | 0.3235 ± 0.0031
25 | PCFACIAFVLFP | 0.451 ± 0.013 | 0.413 ± 0.093 | 0.356 ± 0.038 | 0.509 ± 0.032 | 0.334 ± 0.013 | 0.343 ± 0.014 | 0.4507 ± 0.0011 | 0.4827 ± 0.004
26 | CLISILLFLCFT | 0.439 ± 0.029 | 0.509 ± 0.074 | 0.392 ± 0.014 | 0.459 ± 0.037 | 0.376 ± 0.021 | 0.39 ± 0.021 | 0.446 ± 0.0076 | 0.4162 ± 0.0015
27 | FALFLFFGPLIV | 0.435 ± 0.066 | 0.486 ± 0.012 | 0.301 ± 0.056 | 0.52344 ± 0.00026 | 0.335 ± 0.019 | 0.331 ± 0.011 | 0.4857 ± 0.0017 | 0.4287 ± 0.0032
28 | WLFRASSFNWVI | 0.537 ± 0.017 | 0.7359 ± 0.0063 | 0.689 ± 0.04 | 0.802 ± 0.025 | 0.0843 ± 0.016 | 0.105 ± 0.026 | 0.188 ± 0.019 | 0.105 ± 0.036
29 | LVGVLLAVWSVV | 0.2387 ± 0.00038 | 0.294 ± 0.039 | 0.249 ± 0.039 | 0.412 ± 0.0087 | 0.168 ± 0.0025 | 0.197 ± 0.019 | 0.338 ± 0.045 | 0.308 ± 0.017
30 | QGILVGCCYVLC | 0.426 ± 0.024 | 0.4409 ± 0.00073 | 0.313 ± 0.021 | 0.5035 ± 0.00077 | 0.2731 ± 0.0018 | 0.3 ± 0.023 | 0.4657 ± 0.0015 | 0.386 ± 0.022
